No end group written: not given here.

For the experiment, the target named is purified HLA A*03:01 class I MHC molecules. Put plainly: radioligand binding.

B1: …, peptide derived from the DENV envelope (E) region [655 - 668] (peptide)
peptide: IIIGVEPGQL
modifications: not fully specified
What is called IC50 is the midpoint of a concentration-inhibition curve. The low end stands for greater potency in that assay, the high end for weaker potency in that assay. In turn, B1 registered an IC50 greater than 5000 nM.

B2: …, peptide derived from the DENV envelope (E) region [655 - 668] (peptide)
peptide: DSYIIIGVEPGQLK
modifications: not fully specified
In turn, B2 gave an IC50 of 2000 nM.

(Values after paper doi:10.1101/471821.)
